# T1: ABP-1 (human, UniProt Q4VCS5 410-1084)
# T1 construct: also called angiostatin receptor
# T1 sequence: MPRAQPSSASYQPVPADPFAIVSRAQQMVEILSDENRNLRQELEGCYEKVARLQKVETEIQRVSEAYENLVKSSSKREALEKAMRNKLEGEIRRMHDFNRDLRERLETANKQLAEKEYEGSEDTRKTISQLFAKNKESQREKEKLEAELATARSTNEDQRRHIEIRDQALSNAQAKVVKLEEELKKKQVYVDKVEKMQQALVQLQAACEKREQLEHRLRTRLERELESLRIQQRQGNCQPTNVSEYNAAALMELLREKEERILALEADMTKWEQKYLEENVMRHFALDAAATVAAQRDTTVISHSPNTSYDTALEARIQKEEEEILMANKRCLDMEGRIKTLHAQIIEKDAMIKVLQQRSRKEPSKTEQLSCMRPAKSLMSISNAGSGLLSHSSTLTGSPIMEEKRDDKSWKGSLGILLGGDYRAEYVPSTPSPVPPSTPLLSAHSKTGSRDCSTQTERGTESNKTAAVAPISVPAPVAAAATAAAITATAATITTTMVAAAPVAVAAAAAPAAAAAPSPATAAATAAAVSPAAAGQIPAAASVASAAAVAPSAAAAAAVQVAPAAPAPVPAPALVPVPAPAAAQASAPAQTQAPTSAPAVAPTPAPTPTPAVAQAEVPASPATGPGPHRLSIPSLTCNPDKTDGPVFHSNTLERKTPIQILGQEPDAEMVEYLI
# Experiments:
# [1] = target: Angiostatin + Binding Domain (UniProt P00747); assay: cell-based or functional assay
# p53 + Binding Domain = assay: cell-based or functional assay
# ABP-1 = target: T1, ABP-1; assay: fluorescence microscopy, FITC-labelled angiostatin (10 ug/ml) on live HeLa cells transfected with ABP-1
# Activation Domain alone, sequence (P04386 768-881 limits assumed): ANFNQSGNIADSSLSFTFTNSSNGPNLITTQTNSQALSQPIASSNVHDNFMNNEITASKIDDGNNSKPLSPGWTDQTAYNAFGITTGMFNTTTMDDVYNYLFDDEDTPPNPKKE
# Angiostatin + Binding Domain, sequence (P00747 whole entry, the tested form may be a part): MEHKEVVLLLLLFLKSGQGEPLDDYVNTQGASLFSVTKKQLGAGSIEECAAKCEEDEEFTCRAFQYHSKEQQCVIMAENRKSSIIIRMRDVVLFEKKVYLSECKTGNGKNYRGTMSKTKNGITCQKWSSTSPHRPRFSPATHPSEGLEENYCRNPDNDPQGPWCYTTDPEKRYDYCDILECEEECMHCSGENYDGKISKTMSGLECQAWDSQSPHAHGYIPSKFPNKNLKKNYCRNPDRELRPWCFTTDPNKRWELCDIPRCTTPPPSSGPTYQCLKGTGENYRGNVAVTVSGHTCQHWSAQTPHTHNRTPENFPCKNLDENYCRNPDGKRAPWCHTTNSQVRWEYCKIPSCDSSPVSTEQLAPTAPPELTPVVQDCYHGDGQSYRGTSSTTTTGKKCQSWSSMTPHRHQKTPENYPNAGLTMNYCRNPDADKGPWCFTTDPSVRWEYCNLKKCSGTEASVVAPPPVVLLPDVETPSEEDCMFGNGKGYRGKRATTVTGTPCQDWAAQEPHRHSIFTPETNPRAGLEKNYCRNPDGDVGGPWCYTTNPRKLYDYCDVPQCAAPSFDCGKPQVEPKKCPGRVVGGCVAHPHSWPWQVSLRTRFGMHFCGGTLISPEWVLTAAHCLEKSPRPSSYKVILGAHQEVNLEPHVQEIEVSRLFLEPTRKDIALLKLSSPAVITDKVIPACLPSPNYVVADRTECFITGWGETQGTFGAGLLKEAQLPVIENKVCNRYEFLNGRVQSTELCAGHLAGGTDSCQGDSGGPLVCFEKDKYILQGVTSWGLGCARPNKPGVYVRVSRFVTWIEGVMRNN
# SV40LT - Activation Domain, sequence (P03070 84-708): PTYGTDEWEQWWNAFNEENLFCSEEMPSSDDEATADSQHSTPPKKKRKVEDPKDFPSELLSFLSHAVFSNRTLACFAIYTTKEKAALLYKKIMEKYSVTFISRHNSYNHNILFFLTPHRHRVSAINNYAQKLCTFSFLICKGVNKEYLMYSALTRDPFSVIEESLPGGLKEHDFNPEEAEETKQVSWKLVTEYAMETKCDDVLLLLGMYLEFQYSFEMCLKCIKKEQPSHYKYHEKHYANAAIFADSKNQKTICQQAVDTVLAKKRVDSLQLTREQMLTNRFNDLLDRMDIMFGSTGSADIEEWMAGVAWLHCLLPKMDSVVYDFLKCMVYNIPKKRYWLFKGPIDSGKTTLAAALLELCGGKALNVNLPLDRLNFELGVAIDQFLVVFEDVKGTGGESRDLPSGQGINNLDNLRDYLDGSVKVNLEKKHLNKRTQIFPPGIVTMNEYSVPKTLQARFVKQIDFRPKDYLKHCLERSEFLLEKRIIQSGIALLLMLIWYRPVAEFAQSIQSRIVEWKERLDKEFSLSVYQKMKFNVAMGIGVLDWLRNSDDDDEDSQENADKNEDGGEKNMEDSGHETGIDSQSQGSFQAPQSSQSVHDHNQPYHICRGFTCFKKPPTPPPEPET
molecule,measurement,setting,value
Activation Domain alone (from UniProt P04386 768-881),β-Gal Activity,[1],< 0.04 u
SV40LT - Activation Domain (from UniProt P03070 84-708),β-Gal Activity,p53 + Binding Domain,90 u
"human angiostatin (kringle domains 1-4 of plasminogen) (ligand, UniProt P00747 99-459, looked up, FITC-labelled in the cell binding assay of FIG. 9C, domain: kringle domains 1-4; Used unlabelled in the pull-down and kinase assays, FITC-labelled on transfected HeLa cells; also called K1-K4; FITC-labelled angiostatin) YLSECKTGNGKNYRGTMSKTKNGITCQKWSSTSPHRPRFSPATHPSEGLEENYCRNPDNDPQGPWCYTTDPEKRYDYCDILECEEECMHCSGENYDGKISKTMSGLECQAWDSQSPHAHGYIPSKFPNKNLKKNYCRNPDRELRPWCFTTDPNKRWELCDIPRCTTPPPSSGPTYQCLKGTGENYRGNVAVTVSGHTCQHWSAQTPHTHNRTPENFPCKNLDENYCRNPDGKRAPWCHTTNSQVRWEYCKIPSCDSSPVSTEQLAPTAPPELTPVVQDCYHGDGQSYRGTSSTTTTGKKCQSWSSMTPHRHQKTPENYPNAGLTMNYCRNPDADKGPWCFTTDPSVRWEYCNLKKCSGTEA",binding result,ABP-1,binds
